The values below come from patent US20230374132A1.

Assay [1] addresses cynomolgus monkey CD3 E&D complex protein (Sino Biological Inc., CT032-00323H) (cynomolgus monkey) (UniProt Q95LI5). Briefly: SPR, antigen on chip.
Assay [2] has as its target human CD3E&G complex (Sino Biological Inc., CT041-H0305H) (human) (UniProt P07766). Nature of the assay: SPR, antigen on chip.

Sequence of human CD3E&G complex (Sino Biological Inc., CT041-H0305H) (human) (P07766 23-126, chain 1 of 2): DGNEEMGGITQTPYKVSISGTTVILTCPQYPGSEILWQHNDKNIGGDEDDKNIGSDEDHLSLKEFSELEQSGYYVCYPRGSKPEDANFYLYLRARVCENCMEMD
Sequence of human CD3E&G complex (Sino Biological Inc., CT041-H0305H) (human) (P09693 23-116, chain 2 of 2, further chain): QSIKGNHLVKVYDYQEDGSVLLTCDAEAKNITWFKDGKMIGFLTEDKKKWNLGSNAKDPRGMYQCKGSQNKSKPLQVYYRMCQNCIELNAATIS
Sequence of cynomolgus monkey CD3 E&D complex protein (Sino Biological Inc., CT032-00323H) (cynomolgus monkey) (Q95LI5 22-117, chain 1 of 2): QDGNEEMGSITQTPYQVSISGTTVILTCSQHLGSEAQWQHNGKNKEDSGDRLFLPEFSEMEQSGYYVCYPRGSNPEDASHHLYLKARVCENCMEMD
Sequence of cynomolgus monkey CD3 E&D complex protein (Sino Biological Inc., CT032-00323H) (cynomolgus monkey) (Q95LI8 22-105, chain 2 of 2, further chain): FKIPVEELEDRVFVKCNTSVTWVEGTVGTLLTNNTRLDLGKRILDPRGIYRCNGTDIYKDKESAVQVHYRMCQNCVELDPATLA

B1: SGN70-sp34.24HL (bispecific antibody, part only; not given: anti-CD70 Fab arm and Fc, not shown: another chain or arm of the molecule; a dimerising Fc or GST; large carriers; small tags and cut ends)
scFv: EVQLVESGGGLVQPGGSLKLSCAASGFTFNTYAMNWVRQASGKGLEWVGRIRSKYNNYATYYADSVKDRFTISRDDSKSTLYLQMNSLKTEDTAVYYCARHGNFGQSYVSWFAYWGQGTTVTVSSGGGGSGGGGSGGGGSGGGGSQAVVTQEPSLTVSPGGTVTLTCRSSTGAVTTSNYANWVQQKPGQAPRGLIGGTNKRAPGVPARFSGSLLGDKAALTLLGAQPEDEAEYYCALWYSNLWVFGQGTKLTVL
Turning to B1, in assay [1], the Kd came out at 179 nM, the koff stood at 0.0302 s⁻¹ and the kon came to 169000 M⁻¹ s⁻¹. In assay [2], this molecule yielded a Kd of 110 nM, a koff of 0.029 s⁻¹ and a kon of 265000 M⁻¹ s⁻¹.

B2: SGN70-sp34.101HL (bispecific antibody, part only; not given: anti-CD70 Fab arm and Fc, not shown: another chain or arm of the molecule; a dimerising Fc or GST; large carriers)
scFv: EVQLVESGGGLVQPGGSLKLSCAASGFTFNTYAMNWVRQASGKGLEWVGRIRSKYNNYATYYADSVKDRFTISRDDSKSTLYLQMNSLKTEDTAVYYCARHGNFGQSAASWFAYWGQGTTVTVSSGGGGSGGGGSGGGGSGGGGSQAVVTQEPSLTVSPGGTVTLTCRSSTGAVTTSNYANWVQQKPGQAPRGLIGGTNKRAPGVPARFSGSLLGDKAALTLLGAQPEDEAEYYCALWYSNLWVFGQGTKLTVL
In assay [1], B2 registered a Kd of 658 nM, a koff of 0.177 s⁻¹ and a kon of 269000 M⁻¹ s⁻¹. In assay [2], this molecule yielded a Kd of 480 nM, a koff of 0.167 s⁻¹ and a kon of 347000 M⁻¹ s⁻¹.

B3: SGN70-sp34.97HL (bispecific antibody, part only; not given: anti-CD70 Fab arm and Fc, not shown: another chain or arm of the molecule; a dimerising Fc or GST)
scFv: EVQLVESGGGLVQPGGSLKLSCAASGFTFNTYAMNWVRQASGKGLEWVGRIRSKAGGYATYYADSVKDRFTISRDDSKSTLYLQMNSLKTEDTAVYYCARHGNFGQSYVSWFAYWGQGTTVTVSSGGGGSGGGGSGGGGSGGGGSQAVVTQEPSLTVSPGGTVTLTCRSSTGAVTTSNYANWVQQKPGQAPRGLIGGTNKRAPGVPARFSGSLLGDKAALTLLGAQPEDEAEYYCALWYSNLWVFGQGTKLTVL
In assay [1], B3 showed a Kd of 5500 nM, a koff of 0.705 s⁻¹ and a kon of 128000 M⁻¹ s⁻¹. In assay [2], this molecule had a Kd of 5200 nM, a koff of 0.416 s⁻¹ and a kon of 79900 M⁻¹ s⁻¹.

B4: SGN70-sp34.87HL (bispecific antibody, part only; not given: anti-CD70 Fab arm and Fc, not shown: another chain or arm of the molecule; a dimerising Fc or GST)
scFv: EVQLVESGGGLVQPGGSLKLSCAASGFTFNTYAMNWVRQASGKGLEWVGRIRSKYNNYATYYADSVKDRFTISRDDSKSTLYLQMNSLKTEDTAVYYCARHYNFGQSYVSWFAYWGQGTTVTVSSGGGGSGGGGSGGGGSGGGGSQAVVTQEPSLTVSPGGTVTLTCRSSTGAVTTSNYANWVQQKPGQAPRGLIGGTNKRAPGVPARFSGSLLGDKAALTLLGAQPEDEAEYYCALWYSNLWVFGQGTKLTVL
As for B4, in assay [1], the Kd amounted to 633 nM, the koff worked out at 0.195 s⁻¹ and the kon was found to be 308000 M⁻¹ s⁻¹. Further, in assay [2], the dissociation constant (Kd) turned out to be 501 nM, the koff worked out at 0.253 s⁻¹ and the kon is 504000 M⁻¹ s⁻¹.

B5: SGN70-sp34.24LH (bispecific antibody, part only; not given: anti-CD70 Fab arm and Fc, not shown: another chain or arm of the molecule; a dimerising Fc or GST; large carriers; small tags and cut ends)
scFv: QAVVTQEPSLTVSPGGTVTLTCRSSTGAVTTSNYANWVQQKPGQAPRGLIGGTNKRAPGVPARFSGSLLGDKAALTLLGAQPEDEAEYYCALWYSNLWVFGQGTKLTVLGGGGSGGGGSGGGGSGGGGSEVQLVESGGGLVQPGGSLKLSCAASGFTFNTYAMNWVRQASGKGLEWVGRIRSKYNNYATYYADSVKDRFTISRDDSKSTLYLQMNSLKTEDTAVYYCARHGNFGQSYVSWFAYWGQGTTVTVSS
In assay [1], B5 registered a Kd of 141 nM, a koff of 0.0158 s⁻¹ and a kon of 113000 M⁻¹ s⁻¹. In addition, in assay [2], the Kd came to 98 nM, the koff is 0.0146 s⁻¹ and the kon is 150000 M⁻¹ s⁻¹.

B6: SGN70-sp34.80LH (bispecific antibody, part only; not given: anti-CD70 Fab arm and Fc, not shown: another chain or arm of the molecule; a dimerising Fc or GST)
scFv: QAVVTQEPSLTVSPGGTVTLTCRSSTGAVTTSNYANWVQQKPGQAPRGLIGGTNKRAPGVPARFSGSLLGDKAALTLLGAQPEDEAEYYCALWYSNLWVFGQGTKLTVLGGGGSGGGGSGGGGSGGGGSEVQLVESGGGLVQPGGSLKLSCAASGFTFNTAAMNWVRQASGKGLEWVGRIRSKYNNYATYYADSVKDRFTISRDDSKSTLYLQMNSLKTEDTAVYYCARHGNFGQSYVSWFAYWGQGTTVTVSS
In assay [1], B6 had a Kd of 6490 nM, a koff of 0.749 s⁻¹ and a kon of 115000 M⁻¹ s⁻¹. In assay [2], the Kd is 4060 nM, the koff turned out to be 0.201 s⁻¹ and the kon was found to be 49700 M⁻¹ s⁻¹.

B7: SGN70-sp34.87LH (bispecific antibody, part only; not given: anti-CD70 Fab arm and Fc, not shown: another chain or arm of the molecule; a dimerising Fc or GST)
scFv: QAVVTQEPSLTVSPGGTVTLTCRSSTGAVTTSNYANWVQQKPGQAPRGLIGGTNKRAPGVPARFSGSLLGDKAALTLLGAQPEDEAEYYCALWYSNLWVFGQGTKLTVLGGGGSGGGGSGGGGSGGGGSEVQLVESGGGLVQPGGSLKLSCAASGFTFNTYAMNWVRQASGKGLEWVGRIRSKYNNYATYYADSVKDRFTISRDDSKSTLYLQMNSLKTEDTAVYYCARHYNFGQSYVSWFAYWGQGTTVTVSS
In assay [1], B7 gave a Kd of 544 nM, a koff of 0.0466 s⁻¹ and an on-rate (kon) of 85700 M⁻¹ s⁻¹. In assay [2], this molecule returned a Kd of 335 nM, a koff of 0.107 s⁻¹ and a kon of 321000 M⁻¹ s⁻¹.

B8: SGN70-sp34.101LH (bispecific antibody, part only; not given: anti-CD70 Fab arm and Fc, not shown: another chain or arm of the molecule; a dimerising Fc or GST; large carriers)
scFv: QAVVTQEPSLTVSPGGTVTLTCRSSTGAVTTSNYANWVQQKPGQAPRGLIGGTNKRAPGVPARFSGSLLGDKAALTLLGAQPEDEAEYYCALWYSNLWVFGQGTKLTVLGGGGSGGGGSGGGGSGGGGSEVQLVESGGGLVQPGGSLKLSCAASGFTFNTYAMNWVRQASGKGLEWVGRIRSKYNNYATYYADSVKDRFTISRDDSKSTLYLQMNSLKTEDTAVYYCARHGNFGQSAASWFAYWGQGTTVTVSS
In assay [1], B8 yielded a Kd of 614 nM, a koff of 0.144 s⁻¹ and a kon of 235000 M⁻¹ s⁻¹. For the same molecule, in assay [2], the Kd came out at 409 nM, the koff stood at 0.119 s⁻¹ and the kon is 290000 M⁻¹ s⁻¹.

B9: SGN70-sp34.99LH (bispecific antibody, part only; not given: anti-CD70 Fab arm and Fc, not shown: another chain or arm of the molecule; a dimerising Fc or GST)
scFv: QAVVTQEPSLTVSPGGTVTLTCRSSTGAVTTSNYANWVQQKPGQAPRGLIGGTNKRAPGVPARFSGSLLGDKAALTLLGAQPEDEAEYYCALWYSNLWVFGQGTKLTVLGGGGSGGGGSGGGGSGGGGSEVQLVESGGGLVQPGGSLKLSCAASGFTFNTYAMNWVRQASGKGLEWVGRIRSKYNNYATYYADSVKDRFTISRDDSKSTLYLQMNSLKTEDTAVYYCARHGNAYQSYVSWFAYWGQGTTVTVSS
In assay [1], B9 gave a Kd of 14600 nM, a koff of 0.217 s⁻¹ and a kon of 14900 M⁻¹ s⁻¹. In assay [2], the Kd stood at 8060 nM, the koff is 0.993 s⁻¹ and the kon was determined as 123000 M⁻¹ s⁻¹.

B10: SGN70-sp34.97LH (bispecific antibody, part only; not given: anti-CD70 Fab arm and Fc, not shown: another chain or arm of the molecule; a dimerising Fc or GST)
scFv: QAVVTQEPSLTVSPGGTVTLTCRSSTGAVTTSNYANWVQQKPGQAPRGLIGGTNKRAPGVPARFSGSLLGDKAALTLLGAQPEDEAEYYCALWYSNLWVFGQGTKLTVLGGGGSGGGGSGGGGSGGGGSEVQLVESGGGLVQPGGSLKLSCAASGFTFNTYAMNWVRQASGKGLEWVGRIRSKAGGYATYYADSVKDRFTISRDDSKSTLYLQMNSLKTEDTAVYYCARHGNFGQSYVSWFAYWGQGTTVTVSS
In assay [1], B10 showed a Kd of 5220 nM, a koff of 0.333 s⁻¹ and a kon of 63800 M⁻¹ s⁻¹. In assay [2], this molecule yielded a Kd of 3110 nM, a koff of 0.253 s⁻¹ and a kon of 81300 M⁻¹ s⁻¹.
